Experimental data: publication PMC4511006 (2015)
Ends that are not written are not given here.

Molecular target: C1q CLR (collagen-like region) (UniProt P02745 31-109; P02747 31-112)
Experiment: SPR

Binder: IALILEPICCQERAA (cysteine pairing not given here; also: acetylated, position not given here) [Acetylated PA (AcPA)]
- koff: 0.000219 s⁻¹
